Data reported in publication PMC2974754 (The Plant journal : for cell and molecular biology, 2010).
Entries after “also recorded” stand apart in the source; their conditions may differ. One block for each molecule: values may come before it. Residues, ends and D or L forms follow the SMILES beside them. No end group written: not given here.

Tests used:
[1] = molecular target: CLV2-MYC (transient expression in N. benthamiana) (Arabidopsis thaliana) (UniProt O80809); assay: radioligand binding
[2] = molecular target: BAM1-GFP (transient expression in N. benthamiana) (Arabidopsis thaliana) (UniProt O49545); assay: radioligand binding
[3] = molecular target: CLV1-GFP (transient expression in N. benthamiana) (Arabidopsis thaliana) (UniProt Q9SYQ8); assay: radioligand binding
[4] = molecular target: BAM2-GFP (transient expression in N. benthamiana) (Arabidopsis thaliana) (UniProt Q9M2Z1); assay: radioligand binding
[5] = stated in peptide description, no test or reference named; cited from earlier work
Arabidopsis plants = conditions: synthetic peptides treating Arabidopsis plants; ref Kinoshita et al. 2007; cited from earlier work
CLV1 [6] = conditions: truncated CLV1 LRR domain expressed in tobacco BY-2 cells; ref Ogawa et al. 2008; cited from earlier work
CLV1 [7] = conditions: cold competitor to radiolabeled CLV3 CLE; ref Kondo et al. 2008, Ogawa et al. 2008; cited from earlier work
[8] = molecular target: T1, CRN-GFP (transient expression in N. benthamiana) (Arabidopsis thaliana, UniProt Q9LYU7 34-401); assay: co-IP
T1 sequence (looked up): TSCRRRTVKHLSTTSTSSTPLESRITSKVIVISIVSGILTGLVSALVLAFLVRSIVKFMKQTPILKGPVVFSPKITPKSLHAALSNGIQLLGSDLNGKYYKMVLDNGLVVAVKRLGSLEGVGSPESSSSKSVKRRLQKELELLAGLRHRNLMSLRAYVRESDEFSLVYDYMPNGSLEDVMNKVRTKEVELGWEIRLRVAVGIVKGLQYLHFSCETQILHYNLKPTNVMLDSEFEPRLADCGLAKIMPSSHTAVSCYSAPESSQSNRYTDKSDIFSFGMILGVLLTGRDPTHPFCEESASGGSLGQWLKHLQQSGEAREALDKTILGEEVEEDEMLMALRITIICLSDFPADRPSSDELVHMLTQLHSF

[9] = molecular target: T2, CLV1-FLAG (transient expression in N. benthamiana) (Arabidopsis thaliana, UniProt Q9SYQ8 25-980); assay: co-IP
T2 sequence (looked up): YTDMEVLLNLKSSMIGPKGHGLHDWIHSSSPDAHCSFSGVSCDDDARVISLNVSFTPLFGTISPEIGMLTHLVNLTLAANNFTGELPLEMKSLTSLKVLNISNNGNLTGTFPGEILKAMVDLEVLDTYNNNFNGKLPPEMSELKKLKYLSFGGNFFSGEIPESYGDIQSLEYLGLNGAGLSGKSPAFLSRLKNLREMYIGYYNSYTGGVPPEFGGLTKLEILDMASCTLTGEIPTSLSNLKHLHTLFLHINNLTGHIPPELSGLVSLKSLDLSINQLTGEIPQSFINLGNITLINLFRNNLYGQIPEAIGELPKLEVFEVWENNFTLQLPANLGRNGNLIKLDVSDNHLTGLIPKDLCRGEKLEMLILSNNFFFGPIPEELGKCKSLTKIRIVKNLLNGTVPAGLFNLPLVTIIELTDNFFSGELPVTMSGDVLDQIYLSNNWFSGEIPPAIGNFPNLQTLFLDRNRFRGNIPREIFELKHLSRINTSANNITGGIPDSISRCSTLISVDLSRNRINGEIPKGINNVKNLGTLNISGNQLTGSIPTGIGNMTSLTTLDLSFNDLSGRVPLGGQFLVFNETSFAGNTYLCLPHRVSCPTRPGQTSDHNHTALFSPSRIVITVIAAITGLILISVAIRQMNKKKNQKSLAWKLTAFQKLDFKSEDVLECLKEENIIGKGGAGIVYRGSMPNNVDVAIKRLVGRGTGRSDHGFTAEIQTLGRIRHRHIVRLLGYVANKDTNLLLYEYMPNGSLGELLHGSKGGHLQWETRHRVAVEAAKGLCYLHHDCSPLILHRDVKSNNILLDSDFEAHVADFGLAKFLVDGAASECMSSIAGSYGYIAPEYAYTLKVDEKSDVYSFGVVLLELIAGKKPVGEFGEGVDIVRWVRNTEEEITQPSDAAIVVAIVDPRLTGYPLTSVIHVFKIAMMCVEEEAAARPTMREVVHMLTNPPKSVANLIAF

[10] = molecular target: T3, CLV1-GFP (transient expression in N. benthamiana) (Arabidopsis thaliana, UniProt Q9SYQ8 25-980); assay: co-IP
T3 sequence (looked up): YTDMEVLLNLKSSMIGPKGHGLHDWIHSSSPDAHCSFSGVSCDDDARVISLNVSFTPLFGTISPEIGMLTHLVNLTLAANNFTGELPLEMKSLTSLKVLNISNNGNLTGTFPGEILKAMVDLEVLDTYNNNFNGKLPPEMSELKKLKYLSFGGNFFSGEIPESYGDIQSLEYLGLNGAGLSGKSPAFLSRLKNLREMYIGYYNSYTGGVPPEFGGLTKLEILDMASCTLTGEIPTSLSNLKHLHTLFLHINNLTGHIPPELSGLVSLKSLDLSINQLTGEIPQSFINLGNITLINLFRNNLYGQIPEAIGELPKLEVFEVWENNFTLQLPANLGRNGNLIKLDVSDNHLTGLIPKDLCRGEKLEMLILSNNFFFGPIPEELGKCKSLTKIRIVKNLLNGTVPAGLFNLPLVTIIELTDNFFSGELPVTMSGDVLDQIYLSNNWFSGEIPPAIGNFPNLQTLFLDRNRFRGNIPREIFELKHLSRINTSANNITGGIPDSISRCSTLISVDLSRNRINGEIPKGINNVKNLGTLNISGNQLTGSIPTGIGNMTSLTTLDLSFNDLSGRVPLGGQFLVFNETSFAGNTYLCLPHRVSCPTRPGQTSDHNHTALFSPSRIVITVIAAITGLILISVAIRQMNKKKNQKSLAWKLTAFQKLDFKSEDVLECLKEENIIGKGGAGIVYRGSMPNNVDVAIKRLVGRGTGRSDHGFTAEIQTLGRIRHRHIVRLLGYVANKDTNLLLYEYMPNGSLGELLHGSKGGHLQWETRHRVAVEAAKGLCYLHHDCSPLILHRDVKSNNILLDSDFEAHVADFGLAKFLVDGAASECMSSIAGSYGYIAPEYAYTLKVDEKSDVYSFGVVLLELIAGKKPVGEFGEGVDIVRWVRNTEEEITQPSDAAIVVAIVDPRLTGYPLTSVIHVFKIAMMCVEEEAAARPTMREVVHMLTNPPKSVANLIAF

Sequence of BAM1-GFP (transient expression in N. benthamiana) (Arabidopsis thaliana) (O49545 20-1003): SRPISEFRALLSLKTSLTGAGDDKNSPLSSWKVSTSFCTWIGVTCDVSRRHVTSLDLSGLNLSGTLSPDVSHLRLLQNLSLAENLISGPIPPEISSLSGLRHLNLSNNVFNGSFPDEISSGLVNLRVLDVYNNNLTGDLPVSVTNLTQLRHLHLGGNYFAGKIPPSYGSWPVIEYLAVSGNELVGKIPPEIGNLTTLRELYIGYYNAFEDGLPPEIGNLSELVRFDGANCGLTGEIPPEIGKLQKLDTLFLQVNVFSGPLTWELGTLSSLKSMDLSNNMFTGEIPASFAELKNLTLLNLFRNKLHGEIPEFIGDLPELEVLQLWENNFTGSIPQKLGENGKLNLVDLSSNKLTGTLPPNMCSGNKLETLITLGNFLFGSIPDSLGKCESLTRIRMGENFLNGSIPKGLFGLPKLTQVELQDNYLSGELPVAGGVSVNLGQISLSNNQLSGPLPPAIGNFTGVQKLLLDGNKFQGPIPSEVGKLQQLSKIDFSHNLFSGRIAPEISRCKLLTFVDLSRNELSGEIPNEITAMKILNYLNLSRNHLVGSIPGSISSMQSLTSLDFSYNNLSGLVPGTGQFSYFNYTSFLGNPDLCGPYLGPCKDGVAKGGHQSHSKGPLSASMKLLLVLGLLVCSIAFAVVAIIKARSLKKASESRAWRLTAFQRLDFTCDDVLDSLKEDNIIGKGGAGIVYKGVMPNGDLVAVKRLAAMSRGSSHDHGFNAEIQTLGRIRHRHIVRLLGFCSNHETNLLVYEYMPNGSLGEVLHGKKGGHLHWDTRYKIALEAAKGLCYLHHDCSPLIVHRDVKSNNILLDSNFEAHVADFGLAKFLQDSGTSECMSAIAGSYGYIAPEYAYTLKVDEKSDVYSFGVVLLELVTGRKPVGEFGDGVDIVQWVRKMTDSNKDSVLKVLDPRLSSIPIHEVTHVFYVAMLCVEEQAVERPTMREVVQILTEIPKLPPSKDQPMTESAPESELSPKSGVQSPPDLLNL

Kd [1]: 32 nM
Kd [2]: 26 nM
Kd [3]: 30 nM
Kd [4]: 36 nM
Molecule: 125I-radiolabeled CLV3 CLE peptide

Molecule: CLV3L: CLV3L (Arg70-Pro96) which includes the full CLV3 CLE domain plus the extended C-terminal tail and is partially functional (RTVPSGPDPLHHHVNPPRQPRNNFQLP; ends and bridges not checked; UniProt Q9XF04 70-96, looked up, fragment)
functionality of the peptide [5]: partially functional

Molecule: CLE25: CLE peptide (RKVPNGPDPIHN; ends and bridges not checked; UniProt Q8LFL4 58-69, looked up)
effect on size of the SAM (Arabidopsis plants): caused reduced size of the SAM

Molecule: CC(C)C[C@H](NC(=O)[C@@H]1CCCN1C(=O)[C@H](CC(=O)O)NC(=O)[C@@H]1CCCN1C(=O)CNC(=O)[C@H](CO)NC(=O)[C@@H]1CCCN1C(=O)[C@@H](NC(=O)[C@@H](NC(=O)[C@@H](N)CCCNC(=N)N)[C@@H](C)O)C(C)C)C(=O)N[C@@H](Cc1c[nH]cn1)C(=O)N[C@@H](Cc1c[nH]cn1)C(=O)O [CLV3 CLE] (H-RTVPSGPDPLHH-OH)
binding to CLV1 (LRR / extracellular domain) (CLV1 [6]): bind to the truncated CLV1 LRR domain; also recorded: binds to the CLV3 CLE peptide through its extracellular domain

Molecule: CLV3S: CLV3S (Thr71-His81) which only contains a portion of the CLE domain and is nonfunctional (TVPSGPDPLHH; ends and bridges not checked)
competition of CLV3S at CLV1, previously reported (CLV1 [7]): unable to compete
functionality of the peptide [5]: nonfunctional

percent co-immunoprecipitated [8]: ~20%
percent co-immunoprecipitated [9]: 2.5%
B1: CLV2-MYC (transient expression in N. benthamiana) (receptor, Arabidopsis thaliana, UniProt O80809 26-720, looked up)
chain: QLPDLDPQDKASLLIFRVSIHDLNRSLSTWYGSSCSNWTGLACQNPTGKVLSLTLSGLNLSSQIHPSLCKLSSLQSLDLSHNNFSGNIPSCFGSLRNLRTLNLSRNRFVGSIPATFVSLKELREVVLSENRDLGGVVPHWFGNFSMNLERVDFSFCSFVGELPESLLYLKSLKYLNLESNNMTGTLRDFQQPLVVLNLASNQFSGTLPCFYASRPSLSILNIAENSLVGGLPSCLGSLKELSHLNLSFNGFNYEISPRLMFSEKLVMLDLSHNGFSGRLPSRISETTEKLGLVLLDLSHNSFSGDIPLRITELKSLQALRLSHNLLTGDIPARIGNLTYLQVIDLSHNALTGSIPLNIVGCFQLLALMISNNNLSGEIQPELDALDSLKILDISNNHISGEIPLTLAGLKSLEIVDISSNNLSGNLNEAITKWSNLKYLSLARNKFSGTLPSWLFKFDKIQMIDYSSNRFSWFIPDDNLNSTRFKDFQTGGGEGFAEPPGKVEIKISAAVVAKDELSFSYNLLSMVGIDLSDNLLHGEIPEALFRQKNIEYLNLSYNFLEGQLPRLEKLPRLKALDLSHNSLSGQVIGNISAPPGLTLLNLSHNCFSGIITEKEGLGKFPGALAGNPELCVETPGSKCDPANIDASQEEIYQNELVEGPISIWIFCLSAFISFDFGVLGIFCSARARSYILQTKA

percent co-immunoprecipitated [10]: 10%
B2: BAM2-FLAG (transient expression in N. benthamiana) (receptor, Arabidopsis thaliana, UniProt Q9M2Z1 23-1002, looked up)
chain: KPITELHALLSLKSSFTIDEHSPLLTSWNLSTTFCSWTGVTCDVSLRHVTSLDLSGLNLSGTLSSDVAHLPLLQNLSLAANQISGPIPPQISNLYELRHLNLSNNVFNGSFPDELSSGLVNLRVLDLYNNNLTGDLPVSLTNLTQLRHLHLGGNYFSGKIPATYGTWPVLEYLAVSGNELTGKIPPEIGNLTTLRELYIGYYNAFENGLPPEIGNLSELVRFDAANCGLTGEIPPEIGKLQKLDTLFLQVNAFTGTITQELGLISSLKSMDLSNNMFTGEIPTSFSQLKNLTLLNLFRNKLYGAIPEFIGEMPELEVLQLWENNFTGSIPQKLGENGRLVILDLSSNKLTGTLPPNMCSGNRLMTLITLGNFLFGSIPDSLGKCESLTRIRMGENFLNGSIPKELFGLPKLSQVELQDNYLTGELPISGGGVSGDLGQISLSNNQLSGSLPAAIGNLSGVQKLLLDGNKFSGSIPPEIGRLQQLSKLDFSHNLFSGRIAPEISRCKLLTFVDLSRNELSGDIPNELTGMKILNYLNLSRNHLVGSIPVTIASMQSLTSVDFSYNNLSGLVPSTGQFSYFNYTSFVGNSHLCGPYLGPCGKGTHQSHVKPLSATTKLLLVLGLLFCSMVFAIVAIIKARSLRNASEAKAWRLTAFQRLDFTCDDVLDSLKEDNIIGKGGAGIVYKGTMPKGDLVAVKRLATMSHGSSHDHGFNAEIQTLGRIRHRHIVRLLGFCSNHETNLLVYEYMPNGSLGEVLHGKKGGHLHWNTRYKIALEAAKGLCYLHHDCSPLIVHRDVKSNNILLDSNFEAHVADFGLAKFLQDSGTSECMSAIAGSYGYIAPEYAYTLKVDEKSDVYSFGVVLLELITGKKPVGEFGDGVDIVQWVRSMTDSNKDCVLKVIDLRLSSVPVHEVTHVFYVALLCVEEQAVERPTMREVVQILTEIPKIPLSKQQAAESDVTEKAPAINESSPDSGSPPDLLSN
